# Reference: patent US9395368B2, “Methods, agents and peptides for inducing an immune response to matrix metalloproteinase-2 expressing tumors” (New York University, priority 2010, dated 2016)
# B1: active MMP-2: Purified human MMP-2 (mixture of the proenzyme (50%) and the active form (50%)) purchased from Biomol (protein, listed as Homo sapiens)
# chain: MEALMARGALTGPLRALCLLGCLLSHAAAAPSPIIKFPGDVAPKTDKELAVQYLNTFYGCPKESCNLFVLKDTLKKMQKFFGLPQTGDLDQNTIETMRKPRCGNPDVANYNFFPRKPKWDKNQITYRIIGYTPDLDPETVDDAFARAFQVWSDVTPLRFSRIHDGEADIMINFGRWEHGDGYPFDGKDGLLAHAFAPGTGVGGDSHFDDDELWTLGEGQVVRVKYGNADGEYCKFPFLFNGKEYNSCTDTGRSDGFLWCSTTYNFEKDGKYGFCPHEALFTMGGNAEGQPCKFPFRFQGTSYDSCTTEGRTDGYRWCGTTEDYDRDKKYGFCPETAMSTVGGNSEGAPCVFPFTFLGNKYESCTSAGRSDGKMWCATTANYDDDRKWGFCPDQGYSLFLVAAHEFGHAMGLEHSQDPGALMAPIYTYTKNFRLSQDDIKGIQELYGASPDIDLGTGPTPTLGPVTPEICKQDIVFDGIAQIRGEIFFFKDRFIWRTVTPRDKPMGPLLVATFWPELPEKIDAVYEAPQEEKAVFFAGNEYWIYSASTLERGYPKPLTSLGLPPDVQRVDAAFNWSKNKKTYIFAGDKFWRYNEVKKKMDPGFPKLIADAWNAIPDNLDAVVDLQGGGHSYFFKGAYYLKLENQSLKSVKFGSIKSDWLGC
# Assays:
# [1] = tested on: human basophils; test: Basophil activation by MMP-2 (IL-4, TSLP, CD203c); format: cell-based
# [2] = tested on: IL-12p35 and IL-12p40 in DCs; test: Intracellular staining of IL-12p35 and IL-12p40 chains in DCs; format: cell-based, human
# Method: Immature DCs were incubated with MMP-2 (0.5 μg/mL or 5 μg/mL) and poly(I:C)-matured 1 h later. IL-12 levels were measured 16 h later. (A) Results are represented as a percentage of IL-12p70 levels, measured by CBA, produced when DCs were incubated with poly(I:C) only (n=11). (B) For intracellular staining of IL-12p35 and IL-12p40 chains, Brefeldin A was added 4 h after poly(I:C) activation and cells were stained after an additional 12 h incubation. Numbers in the upper right quadrants are the percentages of each population for a representative donor (n=3). (C,D) Immature DCs were incubated with MMP-2 for 1 h (5 μg/mL) before poly(I:C) maturation. Intracellular staining of phosphorylated (Y701) STAT1 (P-STAT1) was performed 3 h later. A representative donor (C) and results for all 3 donors (D) are shown. […] (E) Immature DCs were incubated with MMP-2 and poly(I:C)-matured 1 h later. IFNβ levels were measured by ELISA 16 h later. Results are represented as a percentage of IFNβ levels produced when DCs were incubated with poly(I:C) only (n=9). (F,G) 10^6DCs/lane were treated with 0.1 μg MMP-2 or controls. Poly(I:C) was added 1 h later. IFNAR1 protein expression was detected the next day by Western blot analysis using a rabbit monoclonal antibody. A representative donor (F) and results for all 7 donors (G) are shown. (H) The rhIFNAR1 (5 μg; ≈110 kD) was incubated overnight with 0.3 μg MMP-2 before performing Western blot analysis for IFNAR1. The second band (around 90 kD) and the third band (25 kD) very likely correspond to either a degraded form of the protein still recognized by the antibody or a contaminant present in the commercial protein preparation and non-specifically recognized by the antibody. MMP-2 enzymatic activity was controlled (FIG. 13C-D). […]
# Intracellular staining T-bet and GATA-3 expression was measured on resting T cells. […] Cytokine production by T cells was also assessed by intracellular staining T cells were stimulated with 2 μM overlapping peptides. […]
molecule,measurement,setting,value
B1,production of IL-4 by basophils,[1]; MMP-2 0.5 and 5 μg/mL,neither induced
same,production of TSLP by basophils,"[1]; MMP-2 0.5 and 5 μg/mL, 16 h",neither induced
same,expression of basophil activation marker CD203c,"[1]; PBMCs, 6 h",did not increase
same,IL-12p40 production,[2],not affected overall
same,"IL-12p35 production, mean inhibition",[2]; pre-exposure of DCs,65%
same,DCs expressing the IL-12p35 subunit,"[2]; pre-incubated before poly(I:C) activation, poly(I:C) only 4.33%±0.94",1.5%±0.22
